# Experimental data reported in PMC5081367.
# B1: wild type Lck (WT) [not stated] / receptor for activated C kinase 1 (RACK1), endogenous in NIH3T3 [mouse (endogenous in NIH3T3)] (parent)
# chain 1: MGCVCSSNPEDDWMENIDVCENCHYPIVPLDSKISLPIRNGSEVRDPLVTYEGSLPPASPLQDNLVIALHSYEPSHDGDLGFEKGEQLRILEQSGEWWKAQSLTTGQEGFIPFNFVAKANSLEPEPWFFKNLSRKDAERQLLAPGNTHGSFLIRESESTAGSFSLSVRDFDQNQGEVVKHYKIRNLDNGGFYISPRITFPGLHDLVRHYTNASDGLCTKLSRPCQTQKPQKPWWEDEWEVPRETLKLVERLGAGQFGEVWMGYYNGHTKVAVKSLKQGSMSPDAFLAEANLMKQLQHPRLVRLYAVVTQEPIYIITEYMENGSLVDFLKTPSGIKLNVNKLLDMAAQIAEGMAFIEEQNYIHRDLRAANILVSDTLSCKIADFGLARLIEDNEYTAREGAKFPIKWTAPEAINYGTFTIKSDVWSFGILLTEIVTHGRIPYPGMTNPEVIQNLERGYRMVRPDNCPEELYHLMMLCWKERPEDRPTFDYLRSVLDDFFTATEGQYQPQP
# chain 2: not shown
# Variants of: B1
# Assay: co-immunoprecipitation (IP: RACK1, blot anti-Lck), quantified
# Details: with receptor for activated C kinase 1 (RACK1), NIH3T3 Lck infectants, three independent experiments, mean ± SD, parent: 1, read off a plot
row,screen value,Variant
1,0.38,chain 1 R154K Y505F
2,1,chain 1 Y505F
3,0.12,chain 1 W97K Y505F
